This is an account of results in PMC5066740.

Assay [1] deals with MtTT8 (Medicago truncatula).
Assay [2] has as its target MtWD40-1 (Medicago truncatula).

MtTT8 (Medicago truncatula), sequence (main, as listed by the source): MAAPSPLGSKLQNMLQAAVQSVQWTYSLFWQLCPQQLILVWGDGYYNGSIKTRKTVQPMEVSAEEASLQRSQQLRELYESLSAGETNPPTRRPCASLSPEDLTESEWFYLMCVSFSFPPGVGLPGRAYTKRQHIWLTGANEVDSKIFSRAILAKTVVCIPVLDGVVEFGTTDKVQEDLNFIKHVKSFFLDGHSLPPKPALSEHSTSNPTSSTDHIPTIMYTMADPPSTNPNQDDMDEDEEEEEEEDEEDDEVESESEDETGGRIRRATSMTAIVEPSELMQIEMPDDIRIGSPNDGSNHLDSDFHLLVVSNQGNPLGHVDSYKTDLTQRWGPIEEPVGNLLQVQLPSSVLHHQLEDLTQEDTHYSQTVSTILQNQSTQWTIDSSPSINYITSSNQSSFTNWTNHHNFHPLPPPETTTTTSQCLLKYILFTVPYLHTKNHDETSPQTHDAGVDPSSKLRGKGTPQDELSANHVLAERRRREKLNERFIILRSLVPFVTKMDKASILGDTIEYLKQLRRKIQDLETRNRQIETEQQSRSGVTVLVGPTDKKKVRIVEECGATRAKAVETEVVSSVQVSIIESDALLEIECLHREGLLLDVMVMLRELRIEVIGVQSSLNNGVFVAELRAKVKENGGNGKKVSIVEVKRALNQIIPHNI

In the case of “Medicago PROANTHOCYANIDIN REGULATOR (MtPAR) (natural protein)”, the ANR promoter::luciferase reporter activity in Arabidopsis leaves co-bombarded with 35S-driven MtPAR, MtTT8 and MtWD40-1 effectors, against empty vector controls in assay [1] and in assay [2] was 9 fold throughout.
